The results in this text go back to patent US20090055975A1.

The target in the assay is receptor on the pea aphid (Acyrthosiphon pisum) gut epithelium. The experiment in a line: cell-based or functional assay.

The molecule “control phage PhDC6 displaying control peptide C6” displayed a Detection of PEMV RNA in the aphid hemocoel, 1-10 min (No. of positive/No. of tested) (positive samples of 4 tested) of 0; a Detection of PEMV RNA in the aphid hemocoel, 11-20 min (No. of positive/No. of tested) (positive samples of 4 tested) of 0; a Detection of PEMV RNA in the aphid hemocoel, 21-30 min (No. of positive/No. of tested) (positive samples of 4 tested) of 2; a time of feeding on virus-infected plants until viral RNA is detected in hemolymph of 30 min.
In turn, ATCSKKYPRSPCMA (peptide, not shown: large carriers) [phage PhD3.1 displaying peptide GBP3.1] yielded a Detection of PEMV RNA in the aphid hemocoel, 1-10 min (No. of positive/No. of tested) (positive samples of 6 tested) of 0; a Detection of PEMV RNA in the aphid hemocoel, 11-20 min (No. of positive/No. of tested) (positive samples of 6 tested) of 0; a Detection of PEMV RNA in the aphid hemocoel, 21-30 min (No. of positive/No. of tested) (positive samples of 6 tested) of 0; a Detection of PEMV RNA in the aphid hemocoel, 31-40 min (No. of positive/No. of tested) (positive samples of 6 tested) of 0. In addition, the Detection of PEMV RNA in the aphid hemocoel, 41-50 min (No. of positive/No. of tested) (positive samples of 6 tested) is 0; the Detection of PEMV RNA in the aphid hemocoel, 51-60 min (No. of positive/No. of tested) (positive samples of 6 tested) came to 1; the Detection of PEMV RNA in the aphid hemocoel, 61-75 min (No. of positive/No. of tested) (positive samples of 2 tested) was 0; the Detection of PEMV RNA in the aphid hemocoel, 76-90 min (No. of positive/No. of tested) (positive samples of 2 tested) turned out to be 0. The molecule also displayed a time of feeding on virus-infected plants until viral RNA is detected in hemolymph of 60 min.
